In PMC4809639:

T1: FGF14 (1b isoform), wild type, fused to split firefly luciferase fragments (UniProt Q92915)
T1 sequence: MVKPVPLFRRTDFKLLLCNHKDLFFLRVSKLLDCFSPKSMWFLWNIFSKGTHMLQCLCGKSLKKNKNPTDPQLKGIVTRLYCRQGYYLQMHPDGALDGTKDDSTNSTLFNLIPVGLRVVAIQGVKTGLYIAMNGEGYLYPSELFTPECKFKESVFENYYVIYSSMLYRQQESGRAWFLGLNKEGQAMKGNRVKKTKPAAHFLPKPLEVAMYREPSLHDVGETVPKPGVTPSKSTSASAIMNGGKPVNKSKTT


Tests used:
Assay in all cases: split reporter
[1] = target: FGF14^Y153N/V155N (1b isoform) fused to split firefly luciferase fragments
[2] = target: T1, FGF14 (1b isoform), wild type, fused to split firefly luciferase fragments
[3] = target: T1, FGF14 (1b isoform), wild type, fused to split firefly luciferase fragments; remark: listed apart in the source
[4] = target: FGF14^Y153N/V155N (1b isoform) fused to split firefly luciferase fragments; details: split reporter (BiFC, NanoBiT)

| % maximal luminescence against the FGF14:FGF14 dimer [1] | % maximal luminescence against the FGF14:FGF14 dimer [2] | % maximal luminescence of CLuc-FGF14:FGF14-NLuc left with 10 uM peptide [3] | Molecule | % maximal luminescence of the FGF14^Y153N/V155N:FGF14 heterodimer left with FLPK [4] |
| --- | --- | --- | --- | --- |
| 136% | 109% |  | FGF14^Y153N/V155N (1b isoform) fused to split firefly luciferase fragments (natural protein) |  |
|  |  | 75% | Ac-FLPK-NH2 [Ac-FLPK-NH2] | 90.8 ± 5.1% |
